These results are taken from US20150274799A1, “GLP-1 ANALOGUE, ITS PREPARATION METHODS AND USE THEREOF” (TIANJIN INSTITUTE OF PHARMACEUTICAL RESEARCH, priority 2011, published 2015).

Ends that are not written are not given here.

For data set [1] the following is noted: in vivo; cited from earlier work.
For data set [2] the following is noted: cited from earlier work.

As for “^7HAEGT FTSDVSSYLEGQAAKEFICWLCKGRG^37GG C GGGGG GGGGG (HAEGTFTSDVSSYLEGQAAKEFICWLCKGRGGGCGGGGGGGGGG; disulfide (positions not given here); also: contains disulfide bonds, places not given here (three Cys)) [SEQ ID NO 58]”, the “half-life in human serum” value is greater than 24 h. Take HAEGTFTSDVSSYLEGQAAKEFIAWLVKGRG [GLP-1]: the “half-life of GLP-1 administered alone” value in data set [1] is 3 to 5 min. In addition, the serum half-life in data set [2] is 3 to 5 min. Take “^7HAEGT FTSDVSSYLEGQAAKEFICWLCKGRG^37GG C GGGGG GGGGGGGGGG (HAEGTFTSDVSSYLEGQAAKEFICWLCKGRGGGCGGGGGGGGGGGGGGG; disulfide (positions not given here); also: contains disulfide bonds, places not given here (three Cys)) [SEQ ID NO 59]”: the “half-life in human serum” value was greater than 24 h.
